# The Immune Epitope Database (IEDB)
# pIC50, pKd: −log10 of the molar value.
# Key:
# HLA-A*11:01 [1] = experiment: IEDB peptide-MHC binding, purified MHC/direct/fluorescence; filed as Kd, often an IC50 or EC50 that approximates it; ≥ and ≤ were set here for values at or beyond the usual limits of such assays
# HLA-B*15:01 [2] = experiment: as above
# HLA-A*31:01 = experiment: as above
# HLA-B*27:05 = experiment: as above; settings: source organism: Pseudomonas aeruginosa
# HLA-A*26:01 = experiment: as above
# HLA-B*07:02 = experiment: as above
# HLA-A*02:01 [3] = experiment: as above
# HLA-A*24:03 = experiment: as above; settings: source organism: Pseudomonas aeruginosa
# HLA-B*40:01 = experiment: as above; settings: source organism: Pseudomonas aeruginosa
# HLA-B*35:01 = experiment: as above
# HLA-B*08:01 [4] = experiment: as above
# HLA-A*01:01 = experiment: as above
# HLA-A*69:01 = experiment: as above
# HLA-A*03:01 [5] = experiment: as above
# HLA-B*58:01 = experiment: as above; settings: source organism: Pseudomonas aeruginosa
# HLA-A*02:06 = experiment: IEDB peptide-MHC binding, purified MHC/competitive/radioactivity; filed as Kd, often an IC50 or EC50 that approximates it; ≥ and ≤ were set here for values at or beyond the usual limits of such assays; settings: source organism: Vaccinia virus WR
# HLA-B*15:03 = experiment: as above; settings: source organism: Vaccinia virus WR
# HLA-A*02:03 = experiment: as above; settings: source organism: Vaccinia virus WR
# HLA-A*02:02 = experiment: as above; settings: source organism: Vaccinia virus WR
# HLA-B*15:01 [6] = experiment: as above; settings: source organism: Vaccinia virus WR
# HLA-A*30:01 = experiment: as above; settings: source organism: Vaccinia virus WR
# HLA-A*32:01 = experiment: as above; settings: source organism: Vaccinia virus WR
# HLA-B*08:01 [7] = experiment: as above; settings: source organism: Vaccinia virus WR
# HLA-A*02:01 [8] = experiment: IEDB peptide-MHC binding, purified MHC/competitive/fluorescence; filed as Kd, often an IC50 or EC50 that approximates it; ≥ and ≤ were set here for values at or beyond the usual limits of such assays; settings: source organism: Cowpox virus
# HLA-A*02:12 = experiment: as above; settings: source organism: Cowpox virus
# HLA-A*11:01 [9] = experiment: IEDB peptide-MHC binding, purified MHC/competitive/fluorescence; ≥ and ≤ were set here for values at or beyond the usual limits of such assays
# HLA-B*44:02 = experiment: IEDB peptide-MHC binding, purified MHC/direct/fluorescence; filed as Kd, often an IC50 or EC50 that approximates it; ≥ and ≤ were set here for values at or beyond the usual limits of such assays; settings: source organism: Giardia lamblia ATCC 50803
# HLA-A*03:01 [10] = experiment: IEDB peptide-MHC binding, purified MHC/competitive/fluorescence; ≥ and ≤ were set here for values at or beyond the usual limits of such assays; settings: source organism: Zaire ebolavirus
# HLA-A*02:01 [11] = experiment: IEDB peptide-MHC binding, purified MHC/competitive/radioactivity; filed as Kd, often an IC50 or EC50 that approximates it; ≥ and ≤ were set here for values at or beyond the usual limits of such assays; settings: source organism: Dengue virus 1 Singapore/S275/1990
# HLA-A*02:17 = experiment: as above; settings: source organism: Dengue virus 1 Singapore/S275/1990
# [12] = source organism: Pseudomonas aeruginosa
# [13] = source organism: Giardia lamblia ATCC 50803
sequence,measurement,setting,value
LPQTRWQAV,pKd,HLA-A*11:01 [1]; [12],≤ 4.70
same,pKd,HLA-B*15:01 [2]; [12],≤ 4.70
same,pKd,HLA-A*31:01; [12],≤ 4.70
same,pKd,HLA-B*27:05,≤ 4.70
same,pKd,HLA-A*26:01; [12],≤ 4.70
same,pKd,HLA-B*07:02; [12],7.55
same,pKd,HLA-A*02:01 [3]; [12],≤ 4.70
same,pKd,HLA-A*24:03,≤ 4.70
same,pKd,HLA-B*40:01,≤ 4.70
same,pKd,HLA-B*35:01; [12],7.06
same,pKd,HLA-B*08:01 [4]; [12],6.72
same,pKd,HLA-A*01:01; [12],≤ 4.70
same,pKd,HLA-A*69:01; [12],≤ 4.70
same,pKd,HLA-A*03:01 [5]; [12],≤ 4.70
same,pKd,HLA-B*58:01,≤ 4.70
LQISRVNDL,pKd,HLA-A*02:06,6.64
same,pKd,HLA-B*15:03,7.46
same,pKd,HLA-A*02:03,7.94
same,pKd,HLA-A*02:02,7.05
LTIACRVSL,pKd,HLA-B*15:01 [6],7.12
same,pKd,HLA-A*30:01,6.32
same,pKd,HLA-B*15:03,6.22
same,pKd,HLA-A*32:01,7.02
same,pKd,HLA-B*08:01 [7],6.14
NMNNDSYYF,pKd,HLA-A*02:01 [8],7.95
same,pKd,HLA-A*02:12,7.12
NQVCIDILR,pIC50,HLA-A*11:01 [9]; source organism: Vaccinia virus,≤ 3.69
QHTRRVSVL,pKd,HLA-A*11:01 [1]; [13],≤ 4.70
same,pKd,HLA-B*15:01 [2]; [13],≤ 4.70
same,pKd,HLA-B*44:02,≤ 4.70
same,pKd,HLA-A*31:01; [13],≤ 5.00
same,pKd,HLA-A*26:01; [13],5.29
same,pKd,HLA-B*07:02; [13],≤ 4.70
same,pKd,HLA-A*02:01 [3]; [13],5.00
same,pKd,HLA-B*35:01; [13],5.88
same,pKd,HLA-B*08:01 [4]; [13],6.27
same,pKd,HLA-A*01:01; [13],≤ 4.70
same,pKd,HLA-A*69:01; [13],≤ 4.70
same,pKd,HLA-A*03:01 [5]; [13],≤ 4.70
RMFGSKPTF,pKd,HLA-B*15:01 [6],5.12
same,pKd,HLA-A*30:01,5.20
same,pKd,HLA-B*15:03,9.69
same,pKd,HLA-A*32:01,5.01
same,pKd,HLA-B*08:01 [7],5.10
SQTIELIAF,pKd,HLA-B*15:03,9.69
VKNEVNSFK,pIC50,HLA-A*11:01 [9]; source organism: Zaire ebolavirus,4.41
same,pIC50,HLA-A*03:01 [10],4.33
VLLLTIGLSL,pKd,HLA-A*02:01 [11],8.28
same,pKd,HLA-A*02:17,5.41
VMSQEDNHF,pKd,HLA-B*15:01 [6],6.72
same,pKd,HLA-B*15:03,6.99
VVAVGGLAI,pKd,HLA-A*11:01 [1]; [12],≤ 4.70
same,pKd,HLA-B*15:01 [2]; [12],6.84
same,pKd,HLA-A*31:01; [12],≤ 4.70
same,pKd,HLA-B*27:05,≤ 4.70
same,pKd,HLA-A*26:01; [12],≤ 4.70
same,pKd,HLA-B*07:02; [12],6.60
same,pKd,HLA-A*02:01 [3]; [12],≤ 4.70
same,pKd,HLA-A*24:03,≤ 4.70
same,pKd,HLA-B*40:01,≤ 4.70
same,pKd,HLA-B*35:01; [12],5.21
same,pKd,HLA-B*08:01 [4]; [12],≤ 4.70
same,pKd,HLA-A*01:01; [12],≤ 4.70
same,pKd,HLA-A*03:01 [5]; [12],≤ 4.70
same,pKd,HLA-B*58:01,≤ 4.70
YMSSEPIIF,pKd,HLA-B*15:03,9.52
